Source: patent publication US11957698B2, “Synergistic combination of thermolysin and an antibacterial agent to reduce or eliminate bacterial biofilms from surfaces” (SMITH & NEPHEW, INC., priority 2017, dated 2024)

B1: thermolysin (protein, UniProt P00800 233-548, looked up)
Thermolysin: ITGTSTVGVGRGVLGDQKNINTTYSTYYYLQDNTRGNGIFTYDAKYRTTLPGSLWADADNQFFASYDAPAVDAHYYAGVTYDYYKNVHNRLSYDGNNAAIRSSVHYSQGYNNAFWNGSQMVYGDGDGQTFIPLSGGIDVVAHELTHAVTDYTAGLIYQNESGAINEAISDIFGTLVEFYANKNPDWEIGEDVYTPGISGDSLRSMSDPAKYGDPDHYSKRYTGTQDNGGVHINSGIINKAAYLISQGGTHYGVSVVGIGRDKLGKIFYRALTQYLTPTSNFSQLRAAAVQSATDLYGSTSQEVASVKQAFDAVGVK

Assays:
Assay type in all cases: cell-based
P. aeruginosa ATCC 27312 = experiment: Minimum inhibitory concentration (MIC) in bacteria suspension; conditions: for MIC values: thermolysin, where present, kept constant at 50 μg/mL
Experimental: (§1) The concentration of thermolysin in the MIC experiments was kept constant at 50 μg/mL.

S. aureus ATCC 29213 = experiment: as above; conditions: for MIC values: thermolysin, where present, kept constant at 50 μg/mL
Experimental: as §1

[1] = tested on: S. aureus ATCC 6538 bacterial biofilm; experiment: In-vitro gram-positive bacterial biofilm study, 96 well plate, crystal violet staining; conditions: concentrations of 0.00001 mg/mL-10 mg/mL, 16 hours, FIG. 1
Experimental: An in-vitro assay was performed to determine the bacterial biofilm reduction capabilities of thermolysin and collagenase on gram-positive bacterial biofilms. In this assay, S. aureus ATCC 6538 was suspended in a growth media of tryptic soy broth supplemented with 0.25% glucose for optimal bacterial biofilm formation. The suspension was transferred to the wells of sterile 96 well plates and incubated for 22 hours at 37° C. with one change of media. After formation of the bacterial biofilm, the growth media was replaced with solutions of thermolysin dissolved in growth media at various concentrations in some wells and replaced with solutions of collagenase dissolved in growth media at the same concentrations in other wells (enzyme concentrations were 0.000001 mg/mL, 0.00001 mg/mL, 0.0001 mg/mL, 0.001 mg/mL, 0.01 mg/mL, 0.1 mg/mL, 1.0 mg/mL, and 10 mg/mL). After 16 hours, the remaining attached bacteria were quantified by aspirating the enzyme solutions (enzyme+growth media) and washing the plate thoroughly followed by crystal violet staining and recording the absorbance at 570 nm. A growth media control without enzyme was also tested. The crystal violet binds to negative charges on the remaining attached bacteria and the EPS. A decreased absorbance compared to the Control indicates a reduction of attached bacteria meaning a reduction of the bacterial biofilm occurred.

[2] = tested on: P. aeruginosa ATCC 15442 bacterial biofilm; experiment: In-vitro gram-negative bacterial biofilm study, 96 well plate, crystal violet staining; conditions: 18 hours at 37° C., FIG. 2
Experimental: An in-vitro assay was performed to determine the bacterial biofilm reduction capabilities of thermolysin and collagenase on gram-negative bacterial biofilms. In this assay P. aeruginosa ATCC 15442 was suspended in a growth media of 10% tryptic soy broth in PBS supplemented with 0.45% glucose (TSBG). The suspension was transferred to the wells of sterile 96 well plates and incubated for 18 hours at 37° C., then the media was changed with fresh media and incubated an additional 8 hours at 37° C. After formation of the bacterial biofilm, the growth media was replaced with solutions of thermolysin dissolved in TSBG growth media at various concentrations in some wells and replaced with solutions of collagenase dissolved in growth media at the same concentrations in other wells (enzyme concentrations were 0.00001 mg/mL, 0.0001 mg/mL, 0.001 mg/mL, 0.01 mg/mL, 0.1 mg/mL, 1.0 mg/mL, and 10 mg/mL). After 18 hours at 37° C., the remaining attached bacteria were quantified by removing the enzyme solutions (enzyme+TSBG growth media) and washing the plate thoroughly followed by crystal violet staining and recording the absorbance at 570 nm. A growth media control without enzyme was also tested. […] A decreased absorbance compared to the Control indicates a reduction of attached bacteria meaning a reduction of the bacterial biofilm occurred.

Molecule	MIC values (P. aeruginosa ATCC 27312; Rep 1) [µg/mL]	MIC values (P. aeruginosa ATCC 27312; Rep 2) [µg/mL]	MIC values (S. aureus ATCC 29213; Rep 1) [µg/mL]	MIC values (S. aureus ATCC 29213; Rep 2) [µg/mL]	effect in reducing the bacterial biofilm (crystal violet absorbance at 570 nm vs growth media control) [1]	effect in reducing the bacterial biofilm (crystal violet absorbance at 570 nm vs growth media control) ([2]; concentrations of 0.00001 mg/mL-0.01 mg/mL)	effect in reducing the bacterial biofilm (crystal violet absorbance at 570 nm vs growth media control) ([2]; concentrations of 0.1 mg/mL-10 mg/mL)	effect of the addition of thermolysin on the MIC of gentamicin sulfate (P. aeruginosa ATCC 27312; thermolysin 50 μg/mL)	effect of the addition of thermolysin on the MIC of gentamicin sulfate (S. aureus ATCC 29213; thermolysin 50 μg/mL)
gentamicin sulfate	50	50	1.6	1.6	–	–	–	–	–
B1	–	–	–	–	had an effect in reducing the bacterial biofilm	little effect	no effect	did not affect the MIC	did not affect the MIC
